Measured values as given in paper PMC3839849.
Like-named read-outs stand apart in the source and are kept apart here.

What was measured:
Experiment in all cases: ITC
[1] = target: CaV1.2 IQ domain (Homo sapiens) (UniProt Q13936)
[2] = target: CaV1.2 IQ domain TripleA mutant (CaV1.2 F1618A, F1619A, Y1622A) (human)
[3] = target: CaV1.2 IQ domain TripleA mutant (CaV1.2 F1618A, F1619A, Y1622A) (human); remark: listed apart in the source
CaV1.2 IQ domain (human) = target: CaV1.2 IQ domain (human)

Substance | Kd [1] | Kd [2] | Kd [3] | dH [3] | stoichiometry N [3] | Kd (CaV1.2 IQ domain (human)) | dH (CaV1.2 IQ domain (human))
CaBP1 N-lobe, Q9NZU7 | 1100 nM | – | – | – | – | – | –
calcium binding protein 1 (CaBP1) Δ2–15 (natural protein) | – | 221 nM | 10.9 nM | -4.77 kcal/mol | 0.89 | – | –
calmodulin (CaM), full-length (from UniProt P0DP23 1-149) (natural protein) | – | – | – | -10.6 kcal/mol | – | 0.00085 nM | -5.74 kcal/mol
